This is an account of results in patent publication US20120231006A1 (Amgen, published 2012).

The target of test [1] is T1, human Orai1 (human, UniProt Q96D31 1-301).
T1 construct: on AM1-CHO/hOrai1/hSTIM1-YFP, AM1/hOrai1, HEK-293 transfectants, endogenous on Jurkat and blood cells; in Westerns from cell lysates; also called hOrai1; CRACM1
As to the kind of experiment: FACS Kd, AM1-CHO/hOrai1/hSTIM1-YFP cells. The procedure: The equilibrium plates were centrifuged at 500 g for 3 minutes and cell pellets were washed twice with 200 μL of ice cold FACS buffer (1×D-PBS+2% FBS). The cells were then incubated with a secondary antibody, goat anti-human Fc Cy5 at 5 μg/mL and 100 μL per well for 1 h on ice in the dark. Following the incubation, the cells were washed twice with 200 μL of ice-cold FACS buffer before flow cytometry analysis. The GeoMean values gated on live cell population measure the bound [Ab]. The inverse of the GeoMean values that reflects theoretical free [Ag] in the equilibrium solution was then calculated. The inverse values of the GeoMean read were used in KinExA® Pro software for analysis and Kd calculation for each antibody. The free [Ag] measure was plotted against the starting concentration of titrating component and from these plots at two different cell concentrations the Kd was obtained from curve fitting using n-curve analysis in KinExA Pro software. […] Shown in Table 14 (below) are the equilibrium dissociation constant (Kd) values of invented mAbs determined by FACS Kd measurement.

The target in test [2] is T1, human Orai1. As to the kind of experiment: cell-based or functional assay.

T1 sequence (Q96D31 whole entry): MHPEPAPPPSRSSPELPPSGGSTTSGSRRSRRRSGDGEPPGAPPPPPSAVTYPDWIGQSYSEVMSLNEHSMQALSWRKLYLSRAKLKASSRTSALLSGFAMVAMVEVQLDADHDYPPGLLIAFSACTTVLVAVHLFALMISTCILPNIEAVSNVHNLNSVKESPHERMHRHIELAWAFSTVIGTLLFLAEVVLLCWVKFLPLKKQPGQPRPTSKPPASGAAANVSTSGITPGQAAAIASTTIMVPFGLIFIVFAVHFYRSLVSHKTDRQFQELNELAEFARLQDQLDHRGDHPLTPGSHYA

B1: mAb 5D7.2 (antibody, human IgG2, lambda, V domains shown)
VH: QVQLVQSGAEVKKPGASVKVSCKASGYTFTDYYMNWVRQAPGQGLEWMGWINPNSGGTKYAQKFQGRVTMTRDTSIRTAYMELSRLRSDDTAVYYCAREYGGNSDWFDPWGQGTLVTVSS
VL: QSVLTQPPSVSGAPGQRVTISCTGSSSNIGAGYDVHWYQQSPGTAPKLLIYGNSNRPSGVPDRFSGSKSGTSASLAITGLQAEDEADYYCQSYDNRLSDSVVIGGGTKLTVQG
notes: fully human IgG2 lambda, Campaign 2, recombinant
By Kd is commonly meant the equilibrium constant for the complex coming apart. Regarding B1, the Kd in test [1] came out at 0.483 nM. Moreover, in test [2], the “IC50 IFN-γ, whole blood Donor A, recombinant mAb” value was found to be 2.67 nM; the “IC50 IFN-γ, whole blood Donor B, recombinant mAb” value (“IC50 IFN-γ, whole blood Donor B” for short) amounted to 1.17 nM; the “IC50 IL-2, whole blood Donor A, recombinant mAb” value is 3.17 nM; the “IC50 IL-2, whole blood Donor B, recombinant mAb” value (from here on “IC50 IL-2, whole blood Donor B”) turned out to be 0.8 nM.

B2: mAb 5B5.1 (antibody, human IgG2, lambda, V domains shown)
VH: QVQLVQSGAEVKKPGASVKVSCKASGYTFTDYYINWVRQAPGQGLEWMGWINPNSGGTDYAQKFQGRVTMTRDTSIRTAYMELNRLTSDDTAVYYCAREYGGYEDWFDPWGQGTLVTVSS
VL: QSVLTQPPSVSGAPGQRVTISCTGSNSNIGAGFDVHWYQQLPGTVPKLLIYGNNNRPSGVPDRFSGSKSGTSASLAITGLQAEDEADYYCQSYDSRLTVFGGGTKLTVLG
notes: fully human IgG2 lambda, Campaign 2, recombinant; same chains as 5B5.2
With B2, the Kd in test [1] came to 0.735 nM. For the same molecule, in test [2], the “IC50 IFN-γ, whole blood Donor A, recombinant mAb” value worked out at 0.8 nM; the “IC50 IFN-γ, whole blood Donor B” value worked out at 42.9 nM; the “IC50 IL-2, whole blood Donor A, recombinant mAb” value was 1.34 nM; the “IC50 IL-2, whole blood Donor B” value is 1.14 nM.

B3: mAb 5H3.1 (antibody, human IgG2, lambda, V domains shown)
VH: QVQLVQSGAEVKKPGASVKVSCKASGYTFTDYYMNWVRQAPGQGLEWMGWINPNSGGTKYAQKFQGRVTMTRDTSIRTAYMELSRLRSDDTAVYYCAREYGGNSDWFDPWGQGTLVTVSS
VL: QSVLTQPPSVSGAPGQRVTISCTGSSSNIGAGYDVHWYQQLPGTAPKLLIYGNSNRPSGVPDRFSGSKSGTSASLAITGLQAEDEADYYCQSYDNRLSDSVVIGGGTKLAVQG
notes: as for B1
For the molecule B3, the affinity in test [1], expressed as Kd, was 0.649 nM. Also, in test [2], the “IC50 IFN-γ, whole blood Donor A, recombinant mAb” value stood at 0.1 nM; the “IC50 IFN-γ, whole blood Donor B” value turned out to be 2.55 nM; the “IC50 IL-2, whole blood Donor A, recombinant mAb” value came to 0.87 nM; the “IC50 IL-2, whole blood Donor B” value came out at 1.59 nM.
